2 molecules from US8202696B2, “Means for use in treating diseases correlated with or caused by non-physiological levels of microtubule-associated PP2Ac” (Max-Planck-Gessellschaft zur Forderung der Wissenschaften …, priority 2002, dated 2012) can be followed below.

What all share (type): cell-based
The test system of assay [1] is patched gene. Description: Patched-specific semiquantitative RT-PCR of HeLa cells. The settings on record: compared to mock-transfected cells. The protocol: One of the most important targets of the Gli3 transcription factor is the patched gene. In order to analyse HeLa cells for Gli3 activity after treatment with the different molecules, semiquantitative RT-PCR of cells overexpressing the B-Box1 and the α4 protein was carried out (FIG. 13). HeLa cells have previously been tested for Gli3-, Gli1 (another target of the Gli3 transcription factor) and patched-expression.

For assay [2], the system named is Gli3. As to the kind of experiment: Localization of overexpressed GFP-tagged Gli3 in HeLa cells. The settings on record: GFP-tagged Gli3-overexpressing HeLa cells. Here is the method:
1×10^5 HELA cells per well of a 6-well plate were transfected with Qiagen Polyfect transfection reagent according to the manufacturer's instructions. The ratio of the amount of DNA to the amount of polyfect transfection reagent was 3 μg DNA/10 μl Polyfect. Constructs used for expression in HELA were the following: GFP-GLI3 (aa 18-1549), GLI3-GFP (aa 1-1522), MYC-GLI3 (aa 18-1596), FLAG-GLI3 (aa18-1596), MYC-B-BOX1 (aa 110-167 of the MID1 protein), ALPHA4-V5 (aa 1-339). 24 h after transfection immunofluorescence was performed. GFP-constructs were treated as described in Schweiger et al., 1999. Immunofluorescence with MYC-tagged and FLAG-tagged constructs was done according to Trockenbacher et al., 2001. FLAG-tagged constructs were detected with anti-FLAG-antibody diluted 1:500, the secondary antibody FITC-antimouse was diluted 1:1000. For MYC-tagged constructs anti-MYC-antibody 1:300 and CY3-antirabbit 1:1000 were used. […]
Overexpressed Gli3 is predominantly localized in the nucleus (FIG. 10, top left).

The test system of assay [3] is PP2A. As to the kind of experiment: Cytosolic PP2A in 293 cells expressing MID1-V5, Western blot. The settings on record: 293 cells expressing MID1-V5 versus control cells. Here is the method: Immunoprecipitation, western blotting and immunofluorescence. For COS7 cells, we lysed in IP1 buffer 8×10^6 cells transfected with pBudCE4 vector carrying the respective cDNAs. After preclearing the lysate with 50 μl protein A-agarose (slurry), we incubated supernatants with 2 μg anti-V5 overnight at 4° C. and then for 2 h with 75 μl (slurry) protein A-agarose. After three washes in IP1 buffer, we eluted the proteins with 1× Laemmli buffer at 95° C. MID1-V5 expression was optimal 48 h after doxycyclin removal from 293 tet-off cell lines. We then lysed cells in IP1 buffer and carried out immunoprecipitation with 2 μg anti-V5. We boiled proteins in 1×SDS-PAGE buffer, separated them on 10% and 12% SDS gels, blotted on PVDF membranes (Roche) and blocked and incubated with the respective primary antibody according to the manufacturer's instructions.
If so, increased MID1 expression should coincide with a decrease of cytosolic PP2A. To test this hypothesis, we analyzed lysates containing equal amounts of protein from 293 cells expressing MID1-V5 (FIG. 4a, lane1) and control cells (FIG. 4a, lane 3) by western blotting with a polyclonal antibody that detects the C subunit of PP2A.

Assay [4] deals with PP2A. As to the kind of experiment: Ubiquitin-dependent regulation of PP2A in embryonic fibroblasts, Western blot. The settings on record: OS-derived cells. The protocol:
Tissue culture. We obtained embryonic fibroblasts from the Max-Planck Institute for Cell Biology (Ladenburg, Germany) and purchased COS7 cells from the American Type Culture Collection (ATCC). Establishment of an embryonic fibroblast cell line from an OS-affected fetus has been described previously^4. We transfected COS7 cells following the Clontech protocol using LipofectACE. Expression was optimal 24-48 h after transfection. […] We determined integration copy number by Southern blot analysis. […]
For proteasome inhibition, we incubated embryonic fibroblasts with varying concentrations (10-50 μM) of LLnL (Sigma) for 2 h or with 10 μM of lactacystin (Sigma) for 5 h. […] Protein concentrations were determined with a Bradford assay. […]
For embryonic fibroblasts, we lysed 8×10^6 cells in IP1 buffer. […] We carried out densitometric quantification using the PCB computer program.
To obtain direct evidence for ubiquitin-dependent regulation of cytosolic PP2A, we analyzed amounts of cytosolic PP2A in embryonic fibroblasts, previously shown to contain large amounts of endogenous MID1 (ref. 2), after treatment with the proteasome inhibitor LLnL (FIG. 4b).

Assay [5] has as its system Gli3. As to the kind of experiment: Localization of GFP-GLI3 in cultured U373MG cells. To be noted: 24 hours after transfection, 100 cells counted. Here is the method:
COS7-HELA- and U373MG-cells were transfected using PolyFect Transfection Reagent (Qiagen, cat. no. 301107) according to the manufacturer's instructions. Gli3 cDNA was cloned into pEGFP-C1 and pEGFP-N3 vectors (Clontech) respectively. 100 transfected cells per experiment (Gli3-GFP, GFP-Gli3, Gli3-GFP+myc-MID1, GFP-Gli3+myc-MID1, Gli3-GFP+myc-BBox1, GFP-Gli3+myc-BBox1) were counted and analysed for Gli3 localization. Experiments were repeated twice. […] PCMV-Tag3 vector from Stratagene was used for myc-MID1 and myc-BBox1 overexpression.

“Also recorded” adds a separate entry of the source.

B1: α4: regulatory subunit of PP2A encoded by human IGBP1, overexpressed (protein, UniProt P78318 2-339, looked up)
Immunoglobulin-binding …: AAEDELQLPRLPELFETGRQLLDEVEVATEPAGSRIVQEKVFKGLDLLEKAAEMLSQLDLFSRNEDLEEIASTDLKYLLVPAFQGALTMKQVNPSKRLDHLQRAREHFINYLTQCHCYHVAEFELPKTMNNSAENHTANSSMAYPSLVAMASQRQAKIQRYKQKKELEHRLSAMKSAVESGQADDERVREYYLLHLQRWIDISLEEIESIDQEIKILRERDSSREASTSNSSRQERPPVKPFILTRNMAQAKVFGAGYPSLPTMTVSDWYEQHRKYGALPDQGIAKAAPEEFRKAAQQQEEQEEKEEEDDEQTLHRAREWDDWKDTHPRGYGNRQNMG
modifications: V5 tag
notes: regulatory subunit of PP2A encoded by human IGBP1, overexpressed
B1: the patched message entry in assay [1] is on record as “increased amount of PCR-product; also recorded: increase of the patched message”. The Gli3 localization entry in assay [2] was “significant release of GFP-Gli3 to the nucleus”.

B2: MID1: RING-finger protein that interacts with the α4 subunit of microtubule associated PP2Ac; overexpressed from cDNA (protein)
chain: METLESELTCPICLELFEDPLLLPCAHSLCFNCAHRILVSHCATNESVESITAFQCPTCRHVITLSQRGLDGLKRNVTLQNIIDRFQKASVSGPNSPSETRRERAFDANTMTSAEKVLCQFCDQDPAQDAVKTCVTCEVSYCDECLKATHPNKKPFTGHRLIEPIPDSHIRGLMCLEHEDEKVNMYCVTDDQLICALCKLVGRHRDHQVAALSERYDKLKQNLESNLTNLIKRNTELETLLAKLIQTCQHVEVNASRQEAKLTEECDLLIEIIQQRRQIIGTKIKEGKVMRLRKLAQQIANCKQCIERSASLISQAEHSLKENDHARFLQTAKNITERVSMATASSQVLIPEINLNDTFDTFALDFSREKKLLECLDYLTAPNPPTIREELCTASYDTITVHWTSDDEFSVVSYELQYTIFTGQANVVSLCNSADSWMIVPNIKQNHYTVHGLQSGTKYIFMVKAINQAGSRSSEPGKLKTNSQPFKLDPKSAHRKLKVSHDNLTVERDESSSKKSHTPERFTSQGSYGVAGNVFIDSGRHYWEVVISGSTWYAIGLAYKSAPKHEWIGKNSASWALCRCNNNWVVRHNSKEIPIEPAPHLRRVGILLDYDNGSIAFYDALNSIHLYTFDVAFAQPVCPTFTVWNKCLTIITGLPIPDHLDCTEQLP
modifications: left off: large carriers
notes: overexpressed from cDNA
As to B2, the “Cytosolic phosphatase 2A level” value in assay [3] is reported as “downregulated”. Further, the “PP2Ac amount after transfection” value in assay [4] is recorded as “normalizes the amount of PP2Ac”. Also, the GFP-GLI3 localization result in assay [5] was “No change”.
